According to US20200377579A1 (Biogen, published 2020):

Assays:
[1] = molecular target: T1, aggregated α-synuclein (human, UniProt P37840 1-140); assay: in vitro binding, method not stated; same EC50 in mass units
[2] = molecular target: T1, aggregated α-synuclein; assay: in vitro binding, method not stated; estimated from binding constants

B1: BIIB054 (antibody, human IgG1, lambda, V domains shown)
VH: EVQLVESGGGLVEPGGSLRLSCAVSGFDFEKAWMSWVRQAPGQGLQWVARIKSTADGGTTSYAAPVEGRFIISRDDSRNMLYLQMNSLKTEDTAVYYCTSAHWGQGTLVTVSS
VL: SYELTQPPSVSVSPGQTARITCSGEALPMQFAHWYQQRPGKAPVIVVYKDSERPSGVPERFSGSSSGTTATLTITGVQAEDEADYYCQSPDSTNTYEVFGGGTKLTVLS
notes: Fully human IgG1/lambda monoclonal antibody; also called anti-α-synuclein antibody
**Q.** Which results are given for B1?
**A.** EC50 [1]: ~0.0375 µg/mL; EC50 [2]: ~250 pM
